Measurements published in patent publication US20240115729A1, “COMPOSITIONS AND METHODS FOR TARGETED ANTIFIBROTIC THERAPY IN CHRONIC PANCREATITIS” (University of Virginia Patent Foundation, priority 2021, published 2024).

Columns and labels:
Assay in all cases: IF colocalization (JACoP) of VT680 phage with marker, CP mouse pancreas sections
[1] = target: carboxypeptidase A1 (CPA1) (mouse) (UniProt Q7TPZ8)
[2] = target: F4/80 (mouse) (UniProt Q61549)
[3] = target: collagen IIIa (mouse) (UniProt P08121)
UniProt P08121, sequence (P08121 155-1219): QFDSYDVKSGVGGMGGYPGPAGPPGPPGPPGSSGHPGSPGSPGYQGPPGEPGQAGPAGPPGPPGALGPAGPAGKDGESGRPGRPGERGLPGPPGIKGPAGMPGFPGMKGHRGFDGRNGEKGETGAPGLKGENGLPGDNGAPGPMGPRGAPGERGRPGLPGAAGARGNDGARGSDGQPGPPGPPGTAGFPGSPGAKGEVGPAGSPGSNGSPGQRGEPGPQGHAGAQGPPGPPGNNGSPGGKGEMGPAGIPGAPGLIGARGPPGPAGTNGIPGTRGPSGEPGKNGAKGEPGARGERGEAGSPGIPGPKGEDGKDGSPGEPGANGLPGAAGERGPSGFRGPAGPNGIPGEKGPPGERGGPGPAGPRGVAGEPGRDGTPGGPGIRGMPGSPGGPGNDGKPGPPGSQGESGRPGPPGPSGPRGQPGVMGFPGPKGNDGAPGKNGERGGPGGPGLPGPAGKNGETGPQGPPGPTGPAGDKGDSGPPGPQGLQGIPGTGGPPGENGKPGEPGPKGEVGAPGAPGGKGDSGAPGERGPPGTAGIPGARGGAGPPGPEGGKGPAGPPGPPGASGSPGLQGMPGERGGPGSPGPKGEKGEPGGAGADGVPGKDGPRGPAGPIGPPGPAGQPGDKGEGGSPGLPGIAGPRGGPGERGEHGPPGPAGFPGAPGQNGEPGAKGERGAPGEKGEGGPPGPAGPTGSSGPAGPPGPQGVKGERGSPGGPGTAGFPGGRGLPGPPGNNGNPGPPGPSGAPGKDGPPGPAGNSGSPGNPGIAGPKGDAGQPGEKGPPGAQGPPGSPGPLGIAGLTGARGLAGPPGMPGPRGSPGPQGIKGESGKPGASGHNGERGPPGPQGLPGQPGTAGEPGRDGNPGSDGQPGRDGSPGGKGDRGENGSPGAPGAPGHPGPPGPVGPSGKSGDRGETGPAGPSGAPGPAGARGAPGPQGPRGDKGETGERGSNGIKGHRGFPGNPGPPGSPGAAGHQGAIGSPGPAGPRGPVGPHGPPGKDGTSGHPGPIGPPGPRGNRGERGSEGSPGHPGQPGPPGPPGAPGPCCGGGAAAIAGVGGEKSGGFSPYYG

[4] = target: cytokeratin 7 (CK-7) (mouse) (UniProt Q9DCV7)
UniProt Q9DCV7, sequence (Q9DCV7 2-457): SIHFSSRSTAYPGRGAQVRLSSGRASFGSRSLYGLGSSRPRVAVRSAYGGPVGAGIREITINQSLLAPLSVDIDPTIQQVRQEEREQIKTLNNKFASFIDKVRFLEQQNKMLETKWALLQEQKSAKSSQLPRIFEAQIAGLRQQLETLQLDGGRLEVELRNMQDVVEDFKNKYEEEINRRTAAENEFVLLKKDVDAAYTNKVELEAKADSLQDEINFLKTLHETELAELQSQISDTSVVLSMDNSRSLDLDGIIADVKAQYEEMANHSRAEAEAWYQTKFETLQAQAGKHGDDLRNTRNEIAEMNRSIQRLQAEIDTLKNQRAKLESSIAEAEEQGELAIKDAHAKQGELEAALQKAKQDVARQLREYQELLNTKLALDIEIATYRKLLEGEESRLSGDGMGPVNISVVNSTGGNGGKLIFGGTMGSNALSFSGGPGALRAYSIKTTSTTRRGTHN

[5] = target: CD31 (mouse) (UniProt Q08481)
UniProt Q08481, sequence (Q08481 18-727): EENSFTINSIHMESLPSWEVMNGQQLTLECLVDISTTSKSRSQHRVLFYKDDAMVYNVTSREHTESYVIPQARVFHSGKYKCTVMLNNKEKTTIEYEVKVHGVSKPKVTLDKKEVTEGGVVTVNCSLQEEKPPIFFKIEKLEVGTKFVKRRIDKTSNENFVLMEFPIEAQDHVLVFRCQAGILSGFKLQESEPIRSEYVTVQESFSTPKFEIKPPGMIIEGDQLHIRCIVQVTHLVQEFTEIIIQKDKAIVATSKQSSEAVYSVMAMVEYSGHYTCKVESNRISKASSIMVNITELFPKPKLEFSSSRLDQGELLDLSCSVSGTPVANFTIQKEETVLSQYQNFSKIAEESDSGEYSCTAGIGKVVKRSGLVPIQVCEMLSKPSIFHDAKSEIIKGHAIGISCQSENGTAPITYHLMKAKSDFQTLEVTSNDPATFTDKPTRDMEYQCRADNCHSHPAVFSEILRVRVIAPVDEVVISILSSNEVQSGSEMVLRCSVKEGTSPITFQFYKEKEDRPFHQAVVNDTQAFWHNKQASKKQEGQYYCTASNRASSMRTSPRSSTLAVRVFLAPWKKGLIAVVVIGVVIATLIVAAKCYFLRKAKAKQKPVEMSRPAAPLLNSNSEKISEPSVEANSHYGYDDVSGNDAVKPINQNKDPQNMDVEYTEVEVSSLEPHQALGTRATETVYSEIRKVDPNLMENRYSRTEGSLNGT

UniProt Q7TPZ8, sequence (Q7TPZ8 111-419): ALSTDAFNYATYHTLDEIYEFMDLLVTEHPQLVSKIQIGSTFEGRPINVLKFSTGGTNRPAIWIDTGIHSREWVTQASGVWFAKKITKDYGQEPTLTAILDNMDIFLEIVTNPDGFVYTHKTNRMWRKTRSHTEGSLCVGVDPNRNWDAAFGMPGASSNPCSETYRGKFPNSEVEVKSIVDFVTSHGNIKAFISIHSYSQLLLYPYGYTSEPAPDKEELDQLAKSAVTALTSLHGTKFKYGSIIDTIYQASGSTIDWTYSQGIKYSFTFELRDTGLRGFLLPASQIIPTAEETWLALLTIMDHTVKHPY
UniProt Q61549, sequence (Q61549 28-931): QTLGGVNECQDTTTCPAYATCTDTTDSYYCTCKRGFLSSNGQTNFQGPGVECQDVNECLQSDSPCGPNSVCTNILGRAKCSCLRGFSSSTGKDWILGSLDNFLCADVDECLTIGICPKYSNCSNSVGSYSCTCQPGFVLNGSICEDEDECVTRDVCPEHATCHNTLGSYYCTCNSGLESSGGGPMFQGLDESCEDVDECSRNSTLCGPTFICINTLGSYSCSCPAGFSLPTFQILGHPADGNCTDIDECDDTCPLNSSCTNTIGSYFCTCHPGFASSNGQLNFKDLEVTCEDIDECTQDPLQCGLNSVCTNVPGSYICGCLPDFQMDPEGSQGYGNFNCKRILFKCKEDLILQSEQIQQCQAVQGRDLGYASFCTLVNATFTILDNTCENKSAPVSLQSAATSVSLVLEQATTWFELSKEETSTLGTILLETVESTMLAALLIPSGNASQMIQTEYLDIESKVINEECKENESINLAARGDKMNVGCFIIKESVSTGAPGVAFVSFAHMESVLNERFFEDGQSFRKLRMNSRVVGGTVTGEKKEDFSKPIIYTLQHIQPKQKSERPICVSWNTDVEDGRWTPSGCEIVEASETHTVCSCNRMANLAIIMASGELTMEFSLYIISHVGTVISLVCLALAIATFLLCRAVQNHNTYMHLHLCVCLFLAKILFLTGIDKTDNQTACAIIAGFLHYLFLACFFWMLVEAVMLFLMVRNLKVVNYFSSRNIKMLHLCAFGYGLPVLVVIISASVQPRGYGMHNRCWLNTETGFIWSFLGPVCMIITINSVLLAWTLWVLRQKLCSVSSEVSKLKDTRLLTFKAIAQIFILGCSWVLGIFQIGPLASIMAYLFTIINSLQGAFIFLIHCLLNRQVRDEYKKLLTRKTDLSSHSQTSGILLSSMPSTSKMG

SLTNSSF (SEQ ID NO: 27) phage clone (peptide)
mean Manders' correlation coefficient (MCC), fraction of phage overlapping cell marker [1]: 0.22 | mean Manders' correlation coefficient (MCC), fraction of phage overlapping cell marker [2]: 0.8 | mean Manders' correlation coefficient (MCC), fraction of phage overlapping cell marker [3]: 0.33 | mean Manders' correlation coefficient (MCC), fraction of phage overlapping cell marker [4]: 0.11 | mean Manders' correlation coefficient (MCC), fraction of phage overlapping cell marker [5]: 0.13
